Assay type in all cases: biochemical, Paenibacillus lentus
Substrate in data set [1]: Nc1ncnc2c1ncn2[C@@H]1O[C@H](COP(=O)(O)OP(=O)(O)OP(=O)(O)O)[C@@H](O)[C@H]1O
The experiment in a line: Phosphate assay (Malachite green) with UDP, ATP and dAMP, AP1 ("Native"). The protocol: (§1) FIG. 9 depicts (A)Vmax (IU/mg) and (B) KM (μM) activity of AP1 (designated “Native”) and APHT (designated “HT”) on UDP, ATP and dAMP. Assays were performed at 40° C. with p substrate concentration 0-5 mM in Tris buffer pH 8. The enzyme concentration was 2 μg/mL.
(§2) FIG. 10 depicts (A)Vmax (IU/mg) and (B) KM (μM) activity of AP1 (designated “Native”) and APHT (designated “HT”) with UDP, ATP and dAMP. Assays were performed at 50° C. with p substrate concentration 0-5 mM in DEA buffer pH 10. The enzyme concentration was 2 μg/mL.
(§3) Enzymes, including lysozyme and alkaline phosphatase, are recognized as disruptors of bacterial debris and inflammation. These enzymes reduce inflammation, including by lysing the peptidoglycans and LPS of bacteria, thus deactivating them and thereby bypassing the inflammatory response. An alkaline phosphatase was initially identified and modified from Paenibacillus lentus bacteria and expressed for application and use as a farm animal feed additive. This modified alkaline phosphatase is characterized by having a serine (S) replacement for an aspartic acid (D) in the native bacterial alkaline phosphatase protein sequence and is designated herein as AP1. […] The AP1 alkaline phosphate is described including in U.S. Pat. No. 9,326,535 issued May 3, 2016. The sequence of AP1 is as follows (the serine is in bold and underlined) (SEQ ID NO:4):
(§4) 5. Phosphate Assay with Biological Substrates UDP, ATP, and dAMP (Native and HT)
(§5) Phosphatase activity with UDP, ATP and dAMP was assessed by measuring the release of […] with the Malachite green reagent (Sigma) at 40° C. and 50° C. Assay consisted of nucleotide phosphate in the concentration range 0-5 mM, 2 μg/mL AP in a final volume of 100 μL. The reaction was initiated in a 96-well microplate with the addition of enzyme and incubated for 5 min. After this time, 10 μL of reaction were mixed with 90 μL of water 25 μL of Malachite green solution. The microplate was shaken for 20 min at 25° C. and absorption was recorded at 620 nm. As standard pyrophosphate solution in water was used in the concentration range of 0-40 μM. Each experiment was done by triplicated at least.

Substrate in data set [2]: Nc1ncnc2c1ncn2[C@H]1C[C@H](O)[C@@H](COP(=O)(O)O)O1
Described as above. The protocol: as §1, §2, §3, §4, §5

Substrate in data set [3]: O=c1ccn([C@@H]2O[C@H](COP(=O)(O)OP(=O)(O)O)[C@@H](O)[C@H]2O)c(=O)[nH]1
Described as above. The protocol:
as §1, §2, §3, §4, §5

Substrate in data set [4]: Nc1ncnc2c1ncn2[C@@H]1O[C@H](COP(=O)(O)OP(=O)(O)OP(=O)(O)O)[C@@H](O)[C@H]1O
As to the kind of experiment: Phosphate assay (Malachite green) with UDP, ATP and dAMP, APHT ("HT"). The protocol: as §1, §2
(§6) To further improve the thermal stability, a set of synthetic alkaline phosphatase genes where each amino acid was mutated to other possibilities one at a time was constructed and evaluated. Numerous single amino acids changes improving heat tolerance were combined and incorporated into a mutated alkaline phosphatase version yielding the alkaline phosphatase heat tolerant molecule designated APHT. […] (FIG. 4), and has a total of 16 amino acid changes from the original AP1 sequence (see FIG. 5A and B). In FIG. 5A, the AP1 with a serine mutation is designated as “AP Native” and is depicted in sequence with a leader sequence ASGFYVSGT (SEQ ID NO:13). The AP1 with leader sequence ASGFYVSGT is provided in SEQ ID NO:14). The APHT polypeptide with leader sequence ASGFYVSGT is provided in SEQ ID NO:15). In FIG. 5B, the AP1 with a serine mutation and without any leader sequence or leader peptide amino acids (SEQ ID NO:4) is aligned and compared with the APHT without any leader sequence or leader peptide amino acids (SEQ ID NO:1). The 16 amino acid changes in APHT are evident. The APHT amino acid sequence (excluding and without any leader sequence and starting with amino acids ESSN) is 97% identical to the sequence of AP1 (excluding and without any leader sequence and starting with amino acids ESSN).
(§7) The APHT sequence (SEQ ID NO: 1) is provided below with the amino acid mutations versus the AP1 sequence underlined and in bold.
as §4, §5

Substrate in data set [5]: Nc1ncnc2c1ncn2[C@H]1C[C@H](O)[C@@H](COP(=O)(O)O)O1
The data set is described as above. As for the experimental part:
as §1, §2, §6, §7, §4, §5

Substrate in data set [6]: O=c1ccn([C@@H]2O[C@H](COP(=O)(O)OP(=O)(O)O)[C@@H](O)[C@H]2O)c(=O)[nH]1
The description is as above. As for the experimental part: as §1, §2, §6, §7, §4, §5

Substrate in data set [7]: Nc1ncnc2c1ncn2[C@@H]1O[C@H](COP(=O)(O)OP(=O)(O)OP(=O)(O)O)[C@@H](O)[C@H]1O
The experiment in a line: Dephosphorylation of substrates UDP, ATP and dAMP (Example 4, Table 11). The conditions noted are these: other: Table 11; conditions not given. The protocol: (§8) The inorganic phosphorous release (μM) from each of these sources by the heat tolerant HTAP was determined and is shown in FIG. 12. […] The inorganic phosphorous release (μM) was also assessed from the metabolically relevant compounds phosphocholine, phosphocreatine and phytic acid and compared with native AP. The heat tolerant HTAP was comparably active vs native AP in Pi release from each of compounds phosphocholine, phosphocreatine and phytic acid (data not shown).
(§9) Dephosphorylation of substrates UDP, ATP and dAMP was also assessed and determined.

Substrate in data set [8]: Nc1ncnc2c1ncn2[C@H]1C[C@H](O)[C@@H](COP(=O)(O)O)O1
The description is as above. The conditions noted are these: other: Table 11; conditions not given. As for the experimental part:
as §8, §9

Substrate in data set [9]: O=c1ccn([C@@H]2O[C@H](COP(=O)(O)OP(=O)(O)O)[C@@H](O)[C@H]2O)c(=O)[nH]1
The data set is described as above. The conditions noted are these: other: Table 11; conditions not given. The protocol:
as §8, §9

Setting [10] is: other: 40° C., Tris buffer pH 8, enzyme 2 μg/mL, pH 8.0, 40.0 °C.
The mark [11] stands for this setting: other: 50° C., DEA buffer pH 10, enzyme 2 μg/mL, pH 10.0, 50.0 °C.

B1: Paenibacillus lentus alkaline phosphatase AP1 (designated "Native"), serine (S) replacement for an aspartic acid (D), SEQ ID NO: 4 (Paenibacillus lentus; D102S) (protein)
chain: ESSNGQSKNLIVLIGDGMGPAQVSAARYFQQHKNNINSLNLDPYYVGQATTYADRGEDGGHIVSGIVTSSASAGTAFATGNKTYNAAISVSNEDVSRPFASVLEAAELSGKSTGLVTTARITHATPAVYASHVRSRDNENAIAFQYLDSGIDVLLGGGESFFVTKEEKGKRNDKNLLPEFEAKGYKVVKTGQSLKSLSAKDAKVLGLFGGSHIAYVPDRSDETPSLAEMTSKALEILSTNENGFAIMIEGGRIDHAGHANDFPTMVQEALDFDEAFKVAIDFAKKDGNTSVVVTADHETGGLSLSRDNIYELNVDLWNKQKNSSESLVSALNEAKTIADVKKIVSDNTWITDLTNEEAQYILDGDGSSYKREGGYNAVISKRLLVGWSGHGHSAVDVGVWAYGPIADKVKGQIDNTRIATASAEVLGVDLKKATADLQSKYLYPKFKINRNKEVLFPAKPLAEALGGKYQAANGTATISGMSGTITVDLNAKKAKLSGNSSSITIDVDNDVLYLPLTAFSQITGQTLKWDALSERIMLK
B1: the Km – broadly, the concentration of substrate that gives half-maximal velocity – in data set [1] (setting [10]) turned out to be 110 µM; in data set [1] (setting [11]) it was 210 µM; in data set [2] (setting [10]), 113 µM; in data set [2] (setting [11]), 199 µM; in data set [3] (setting [10]), 74 µM; in [3] (setting [11]), 83 µM. For the same protein, the Vmax in [1] (setting [10]) came out at 336 IU/mg; in [1] (setting [11]), 578 IU/mg; in data set [2] (setting [10]) it was 356 IU/mg; in data set [2] (setting [11]) it was 730 IU/mg; in [3] (setting [10]), 447 IU/mg; in data set [3] (setting [11]) it was 608 IU/mg.

B2: Paenibacillus lentus alkaline phosphatase AP1 heat tolerant mutant APHT (designated "HT"), 16 amino acid changes from AP1, SEQ ID NO: 1 (Paenibacillus lentus; … (protein)
chain: ESSNGQSKNLIVLIGDGMGPAQVSAARYFQQHINNINSLNLDPYYVGQATTYADRGEDGGHIVSGIITSSAAAGTAIATGNKTNNAAISVSNEDVSRPFASVHEAAELSGKSTGLVTTARITHATPAVYGSHVRNRDNENAIAFQYLDSGIDVLLGGGESFFVTNEEKGKRNDKNLLPEFEAKGYKVVKNGQSLKSLSAKDAKVLGLFGGSHIPYVPDRSDETPSLAEMTSKALEILSTNENGFAIMIEGGRIDHAAHANDFPTMVQEMLAFDEAFKVAIDFAKKDGNTSVVVTADHETGGLSLGRDNIYELNVDLWNKQKNSSESLVSALNEAKTIADVKKIVSDNTWITDLTNEEAQYILDGDGSSYKREGGYNAVISKRLLVGWSGHGHSAVDVGVWAYGPIADKVKGQIDNTRIATASAEVLGVDLKKATADLQSKYLYPKFKINRNKEVLFPAKPLAEALGGKYQAANGTATISGMSGTITVDLNAKKAKLSGNSSEITIDVDNDVLYLPLTAFSQITGQTLKWDALSERIMLK
As to B2, the Km in data set [4] (setting [10]) was found to be 97 µM; in [4] (setting [11]) it was 283 µM; in [5] (setting [10]), 165 µM; in data set [5] (setting [11]) it was 623 µM; in data set [6] (setting [10]) it was 93 µM; in data set [6] (setting [11]) it was 121 µM. Also, the Vmax was determined as 358 IU/mg in [4] (setting [10]); 380 IU/mg in data set [4] (setting [11]); 262 IU/mg in data set [5] (setting [10]); 472 IU/mg in [5] (setting [11]); 631 IU/mg in [6] (setting [10]); 521 IU/mg in data set [6] (setting [11]).

B3: Paenibacillus lentus alkaline phosphatase AP1 heat tolerant mutant APHT (HTAP), SEQ ID NO: 1 (Paenibacillus lentus; … (protein)
chain: ESSNGQSKNLIVLIGDGMGPAQVSAARYFQQHINNINSLNLDPYYVGQATTYADRGEDGGHIVSGIITSSAAAGTAIATGNKTNNAAISVSNEDVSRPFASVHEAAELSGKSTGLVTTARITHATPAVYGSHVRNRDNENAIAFQYLDSGIDVLLGGGESFFVTNEEKGKRNDKNLLPEFEAKGYKVVKNGQSLKSLSAKDAKVLGLFGGSHIPYVPDRSDETPSLAEMTSKALEILSTNENGFAIMIEGGRIDHAAHANDFPTMVQEMLAFDEAFKVAIDFAKKDGNTSVVVTADHETGGLSLGRDNIYELNVDLWNKQKNSSESLVSALNEAKTIADVKKIVSDNTWITDLTNEEAQYILDGDGSSYKREGGYNAVISKRLLVGWSGHGHSAVDVGVWAYGPIADKVKGQIDNTRIATASAEVLGVDLKKATADLQSKYLYPKFKINRNKEVLFPAKPLAEALGGKYQAANGTATISGMSGTITVDLNAKKAKLSGNSSEITIDVDNDVLYLPLTAFSQITGQTLKWDALSERIMLK
On to B3, for which the results for the Km in data set [7], in data set [8] and in data set [9] were 399 ± 68 µM, 242 ± 27 µM and 166 ± 14 µM, respectively. The kcat (in general, the maximal rate divided by the concentration of active sites) in data set [7] was 0.1 ± 0.00333 s⁻¹; in [8] it was 0.132 s⁻¹; in [9], 0.125 ± 0.00167 s⁻¹.

The values above are taken from patent US20250011738A1, “HEAT TOLERANT ALKALINE PHOSPHATASE” (BiomEdit, LLC, priority 2021, published 2025).
